The source of these data is patent publication US20040048377A1 (published 2004).

To fix the notation:
B1: mouse Grg4 (other, UniProt Q62441 1-773, looked up)
chain: MIRDLSKMYPQTRHPAPHQPAQPFKFTISESCDRIKEEFQFLQAQYHSLKLECEKLASEKTEMQRHYVMYYEMSYGLNIEMHKQAEIVKRLNAICAQVIPFLSQEHQQQVVQAVERAKQVTMAELNAIIGQQLQAQHLSHGHGLPVPLTPHPSGLQPPAIPPIGSSAGLLALSSALGGQSHLPIKDEKKHHDNDHQRDRDSIKSSSVSPSASFRGSEKHRNSTDYSSESKKQKTEEKEIAARYDSDGEKSDDNLVVDVSNEDPSSPRGSPAHSPRENGLDKTRLLKKDAPISPASVASSSSTPSSKSKELSLNEKSTTPVSKSNTPTPRTDAPTPGSNSTPGLRPVPGKPPGVDPLASSLRTPMAVPCPYPTPFGIVPHAGMNGELTSPGAAYAGLHNISPQMSAAAAAAAAAAAYGRSPVVGFDPHHHMRVPAIPPNLTGIPGGKPAYSFHVSADGQMQPVPFPPDALIGPGIPRHARQINTLNHGEVVCAVTISNPTRHVYTGGKGCVKVWDISHPGNKSPVSQLDCLNRDNYIRSCRLLPDGRTLIVGGEASTLSIWDLAAPTPRIKAELTSSAPACYALAISPDSKVCFSCCSDGNIAVWDLHNQTLVRQFQGHTDGASCIDISNDGTKLWTGGLDNTVRSWDLREGRQLQQHDFTSQIFSLGYCPTGEWLAVGMENSNVEVLHVTKPDKYQLHLHESCVLSLKFAHCGKWFVSTGKDNLLNAWRTPYGASIFQSKESSSVLSCDISVDDKYIVTGSGDKKATVYEVIY
notes: 35S-labelled, made in TNT rabbit reticulocyte lysate for the immuno-precipitation; expressed from a vector in COS-7 cells in the reporter assays; also called mGrg4

Test [1] has as its target T1, Nkx2.2ΔTN (Nkx2.2 with the TN domain deleted, Δaa 2-26) (chick).
T1 construct: range 1-1;range 27-C-terminus; Deletion construct, immobilised on antibody-proteinA-sepharose in the immuno-precipitation; also called cNkx2.2^?TN; NKx2.2^?TN
Nature of the test: immuno-precipitation, 35S-labelled Grg4, Nkx protein on antibody-proteinA-sepharose. On the procedure: (§1) Immuno-precipitation (IP) assays using rabbit Nkx2.2 (Ericson et al., 1997) and Nkx6.1 antibodies (Jensen et al., 1996) were performed as described by Current protocols 2nd ed. ³⁵S-labelled mGrg4 was synthesized using the TNT coupled rabbit reticulocyte lysate. Electric mobility shift assays were performed as described (Jorgensen et al., 1999). Briefly, the isolated homeodomains of Nkx6.1, Nkx6.2, Nkx2.2 and Nkx2.9HD were synthesized using the TNT coupled rabbit reticulocyte lysate and tested for their binding specificity in vitro using ³²P-labelled double stranded DNA oligonucleotides containing defined Nkx6.1 (Jorgensen et al., 1999) or Nkx2.1 binding sites (Damante et al., 1996).
(§2) An immuno-precipitation assay was then used to test if mammalian Gro/TLE family members could also bind to Nkx proteins, and if the TN domain is required for this interaction. […] Carboxy-terminal directed antibodies that recognise both full-length proteins as well as truncated variants lacking the TN domain were used (Ericson et al., 1997; Jensen et al., 1996). […]
(§3) Deletion of the TN domain in Nkx2.2 and Nkx6.1 reduced the interaction with Grg4 (9-fold for Nkx2.2ATN and 5-fold for Nkx6.1ΔTN, compared to the full-length proteins). […] No significant interaction was detected between Grg4 and antibody-proteinA-sepharose complexes.

The target of test [2] is B1. The test is described as above. On the procedure:
as §1, §2, §3

Take B1: in test [1], the “fold reduction of the interaction with Grg4 compared to the full-length protein” value came out at 9 fold.

B2: Nkx6.1 (full-length, rNkx6.1) (other, rat, UniProt O35762 1-365, looked up)
chain: MLAVGAMEGPRQSAFLLSSPPLAALHSMAEMKTPLYPAAYPPLPTGPPSSSSSSSSSSSPSPPLGAHNPGGLKPPAAGGLSSLGSPPQQLSAATPHGINDILSRPSMPVASGAALPSASPSGSSSSSSSSASATSASAAAAAAAAAAAAAASSPAGLLAGLPRFSSLSPPPPPPGLYFSPSAAAVAAVGRYPKPLAELPGRTPIFWPGVMQSPPWRDARLACTPHQGSILLDKDGKRKHTRPTFSGQQIFALEKTFEQTKYLAGPERARLAYSLGMTESQVKVWFQNRRTKWRKKHAAEMATAKKKQDSETERLKGTSENEEDDDDYNKPLDPNSDDEKITQLLKKHKSSGGSLLLHASEAEGSS
notes: mature; Full-length protein made in TNT rabbit reticulocyte lysate; 35S-labelled in the GST co-precipitation, immobilised on antibody-proteinA-sepharose in the immuno-precipitation
Take B2: the binding result in test [2] is reported as “binds”.
